Results on one molecule are retold here after publication PMC8359183, “The periplasmic domains of Vibriocholerae ToxR and ToxS are forming a strong heterodimeric complex independent on the redox state of ToxR cysteines” (Molecular Microbiology, 2021).

Assay [1] addresses T1, periplasmic domain of Vibrio cholerae ToxS (ToxSp) (Vibrio cholerae).
T1 chain: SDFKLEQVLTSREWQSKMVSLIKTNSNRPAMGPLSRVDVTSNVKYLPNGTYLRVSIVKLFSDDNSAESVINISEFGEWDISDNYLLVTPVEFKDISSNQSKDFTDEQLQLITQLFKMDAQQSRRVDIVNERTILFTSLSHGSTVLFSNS
As to the kind of experiment: SEC-MALS. The conditions noted are these: both partners purified.

The target in assay [2] is T2, ToxSp H10_S11insC labelled with 5-iodoacetamidofluorescein (Vibrio cholerae).
T2 construct: also called FITC ToxSp H10_S11insC
T2 chain: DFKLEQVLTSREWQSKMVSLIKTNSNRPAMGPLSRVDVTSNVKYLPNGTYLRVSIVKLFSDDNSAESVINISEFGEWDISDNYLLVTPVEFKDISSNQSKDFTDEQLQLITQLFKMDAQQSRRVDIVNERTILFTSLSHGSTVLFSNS
The assay can be described thus: fluorescence polarisation. The settings on record: both partners purified.

B1: periplasmic domain of Vibrio cholerae ToxR, oxidized, with an intramolecular disulfide bond (ToxRp-ox) (domain or fragment)
chain: PSQTSFKPLTVVDGVAVNMPNNHPDLSNWLPSIELCVKKYNEKHTGGLKPIEVIATGGQNNQLTLNYIHSPEVSGENITLRIVANPNDAIKVCE
notes: also called pToxR-ox; ToxRp-ox-V.c
Turning to B1, in assay [1], the “stoichiometry N” value is 1 ToxRp per ToxSp. Besides, the Kd in assay [2] is 11.6 ± 3.4 nM.
